# Assay results published in patent US20160143998A1 (Novo Nordisk, published 2016).
# *1 amine or outer side, *2 acyl side, *3 side chain or, on linkers, in order; H or OH if unused. Where no end group is shown, it is not given here. Side-chain parts run from the residue outwards. [ ]: non-standard residue; d: D form. The star is where a group is joined. code 2xAEEA = O=C(COCCOCCN[*:1])NCCOCCOCC(=O)[*:2]; C20 diacid = O=C(O)CCCCCCCCCCCCCCCCCCC(=O)*; γGlu = O=C(O)[C@H](CCC(=O)[*:2])N[*:1]; Desaminohistidyl = O=C(CCc1c[nH]cn1)*; Trx = NC[C@H]1CC[C@H](C(=O)O)CC1; code LysOEG = not defined here; Lys(Bis) = not defined here; AEEA = NCCOCCOCC(=O)O; Aib = CC(C)(N)C(=O)O
# Legend:
# human GLP-1 receptor [1] = target: T1, human GLP-1 receptor (human, UniProt P43220 24-463); test: cell-based or functional assay
# human GLP-1 receptor [2] = target: T1, human GLP-1 receptor; test: SPA competition vs 125I-GLP-1(7-36)NH2, hGLP-1R BHK membranes, low HSA
# Experimental: (§1) For the receptor binding assay in the presence of low HSA (0.005%) 50 μl of the assay buffer was added to each well of an assay plate. […] For the receptor binding assay in the presence of high HSA (2%) 50 μl of the 8% albumin stock was added to each well of an assay plate. […] Cell membrane aliquots were thawed and diluted to their working concentration. Fifty μl were added to each well in the assay plate. […] WGA SPA beads were suspended in assay buffer at 20 mg/ml. The suspension was diluted to 10 mg/ml in assay buffer just prior to addition to the assay plate. Fifty μl were added to each well in the assay plate. […] A 25 μl aliquot was reserved for measuring total counts/well. […] The assay plate was incubated for 2 h at 30° C. […] The assay plate was centrifuged for 10 min. […] The assay plate was read in a Packard TopCount NXT instrument.
# human GLP-1 receptor [3] = target: T1, human GLP-1 receptor; test: SPA competition vs 125I-GLP-1(7-36)NH2, hGLP-1R BHK membranes, high HSA (2.0%)
# Experimental: as §1
Binder,"EC50 (pM), in vitro potency, CRE luciferase reporter gene assay in BHK cells expressing the human GLP-1 receptor (human GLP-1 receptor [1])",IC50 (human GLP-1 receptor [2]),IC50 (human GLP-1 receptor [3])
"H[Aib]EGTFTSDVSSYLEEQAAREFIAWLVRGRGPAEEK([Lys(Bis)-code 2xAEEA-AEEA-γGlu-Trx-C20 diacid]) (reading uncertain, Side chain read from the name: eps-Lys(Bis) branched linker, each leg C20 diacid-Trx-gGlu-2xOEG)",14 pM,2.9 nM,68 nM
"H[Aib]EGTFTSDVSSYLEEQAAREFIAWLVRGRGSSGAPK([Lys(Bis)-code 2xAEEA-AEEA-γGlu-Trx-C20 diacid]) (reading uncertain, Side chain read from the name: eps-Lys(Bis) branched linker, each leg C20 diacid-Trx-gGlu-2xOEG)",99 pM,0.99 nM,28 nM
"H[Aib]EGTFTSDVSSYLEEQAAREFIAWLVRGRGSSEAEK([Lys(Bis)-code 2xAEEA-AEEA-γGlu-Trx-C20 diacid]) (reading uncertain, Side chain read from the name: eps-Lys(Bis) branched linker, each leg C20 diacid-Trx-gGlu-2xOEG)",19 pM,3.1 nM,85 nM
"H[Aib]EGTFTSDVSSYLEEQAAREFIAWLVRGRGSSAEGK([Lys(Bis)-code 2xAEEA-AEEA-γGlu-Trx-C20 diacid]) (reading uncertain, Side chain read from the name: eps-Lys(Bis) branched linker, each leg C20 diacid-Trx-gGlu-2xOEG)",12 pM,3.2 nM,63 nM
"H[Aib]EGTFTSDVSSYLEEQAAREFIAWLVRGRGSSPAAK([Lys(Bis)-code 2xAEEA-AEEA-γGlu-Trx-C20 diacid]) (reading uncertain, Side chain read from the name: eps-Lys(Bis) branched linker, each leg C20 diacid-Trx-gGlu-2xOEG)",22 pM,4.8 nM,51 nM
"H[Aib]EGTFTSDVSSYLEEQAAREFIAWLVRGRGEPPGK([code LysOEG-AEEA-γGlu-Trx-C20 diacid)(OEG-AEEA-γGlu-Trx-C20 diacid]) (reading uncertain, Side chain read from the name: eps-Lys(Bis) branched linker, each leg C20 diacid-Trx-gGlu-2xOEG)",15 pM,2.9 nM,50 nM
"H[Aib]EGTFTSDVSSYLEEQAAREFIAWLVRGRGGGSK([code LysOEG-AEEA-γGlu-Trx-C20 diacid)(OEG-AEEA-γGlu-Trx-C20 diacid]) (reading uncertain; also: printed as [Aib8,Glu22,Arg26,Arg34]-GLP-1-(7-37)-peptidyl-Gly-Gly-Ser-N{Epsilon}[(2S)-2,6-bis[[2-[2-[2-[[2-[2-[2-[[(4S)-4-carboxy-4-[[4-[(19-carboxynonadecanoylamino)methyl]cyclohexanecarbonyl]amino]butanoyl]amino]ethoxy]ethoxy]acetyl]amino]ethoxy]ethoxy]acetyl]amino]hexanoyl]Lys, Side chain read from the name: eps-Lys(Bis) branched linker, each leg C20 diacid-Trx-gGlu-2xOEG)",87 pM,1.93 nM,59 nM
"H[Aib]EGTFTSDVSSYLEEQAAREFIAWLVRGRGGSK([code LysOEG-AEEA-γGlu-Trx-C20 diacid)(OEG-AEEA-γGlu-Trx-C20 diacid]) (reading uncertain; also: printed as [Aib8,Glu22,Arg26,Arg34]-GLP-1-(7-37)-peptidyl-Gly-Ser-N{Epsilon}[(2S)-2,6-bis[[2-[2-[2-[[2-[2-[2-[[(4S)-4-carboxy-4-[[4-[(19-carboxynonadecanoylamino)methyl]cyclohexanecarbonyl]amino]butanoyl]amino]ethoxy]ethoxy]acetyl]amino]ethoxy]ethoxy]acetyl]amino]hexanoyl]Lys, Side chain read from the name: eps-Lys(Bis) branched linker, each leg C20 diacid-Trx-gGlu-2xOEG)",51 pM,0.74 nM,25 nM
"H[Aib]EGTFTSDVSSYLEEQAAREFIAWLVRGRGGGGSK([code LysOEG-AEEA-γGlu-Trx-C20 diacid)(OEG-AEEA-γGlu-Trx-C20 diacid]) (reading uncertain, Side chain read from the name: eps-Lys(Bis) branched linker, each leg C20 diacid-Trx-gGlu-2xOEG)",94 pM,1.64 nM,175 nM
"H[Aib]EGTFTSDVSSYLEEQAAREFIAWLVRGRGAEAPK([code LysOEG-AEEA-γGlu-Trx-C20 diacid)(OEG-AEEA-γGlu-Trx-C20 diacid]) (reading uncertain, Side chain read from the name: eps-Lys(Bis) branched linker, each leg C20 diacid-Trx-gGlu-2xOEG)",13 pM,1.7 nM,27 nM
"H[Aib]EGTFTSDVSSYLEEQAAREFIAWLVRGRGK([code LysOEG-AEEA-γGlu-C20 diacid)(OEG-AEEA-γGlu-C20 diacid]) (reading uncertain; also: printed as N{Alpha}([Aib8,Glu22,Arg26,Arg34]-GLP-1-(7-37)-peptidyl)-N{Epsilon}[(2S)-2,6-bis[[2-[2-[2-[[2-[2-[2-[[(4S)-4-carboxy-4-(19-carboxynonadecanoylamino)butanoyl]amino]ethoxy]ethoxy]acetyl]amino]ethoxy]ethoxy]acetyl]amino]hexanoyl]Lys, Side chain read from the name: eps-Lys(Bis) branched linker, each leg C20 diacid-gGlu-2xOEG)",25 pM,0.45 nM,64 nM
"H[Aib]EGTFTSDVSSYLEEQAAREFIAWLVRGRGSK([Lys(Bis)-code 2xAEEA-AEEA-γGlu-Trx-C20 diacid]) (reading uncertain; also: printed as [Aib8,Glu22,Arg26,Arg34]-GLP-1-(7-37)-peptidyl-Ser-N{Epsilon}[(2S)-2,6-bis[[2-[2-[2[[2-[2-[2-[[(4S)-4-carboxy-4-[[4-[(19-carboxynonadecanoylamino)methyl]cyclohexanecarbonyl]amino]butanoyl]amino]ethoxy]ethoxy]acetyl]amino]ethoxy]ethoxy]acetyl]amino]hexanoyl]Lys, Side chain read from the name: eps-Lys(Bis) branched linker, each leg C20 diacid-Trx-gGlu-2xOEG)",44 pM,0.61 nM,83 nM
"H[Aib]EGTFTSDVSSYLEEQAAREFIAWLVRGRGK (not fully specified (residue 32); printed as N{Alpha}([Aib8,Glu22,Arg26,Arg34]-GLP-1-(7-37)-peptidyl)-N{Epsilon}[(2S)-2,6-bis[[2-[2-[2-[[2-[2-[2-[[(4S)-4-carboxy-4-[[1-(19-carboxynonadecanoyl)piperidine-4-carbonyl]amino]butanoyl]amino]ethoxy]ethoxy]acetyl]amino]ethoxy]ethoxy]acetyl]amino]hexanoyl]Lys, Side chain read from the name: eps-Lys(Bis) branched linker, each leg C20 diacid-Inp-gGlu-2xOEG)",55 pM,0.76 nM,68 nM
"[Desaminohistidyl][Aib]EGTFTSDVSSYLEEQAAREFIAWLVRGRGGK([Lys(Bis)-code 2xAEEA-AEEA-AEEA-AEEA-γGlu-Trx-C20 diacid]) (reading uncertain; also: printed as [Imp7,Aib8,Glu22,Arg26,Arg34]-GLP-1-(7-37)-peptidyl-Gly-N{Epsilon}[(2S)-2,6-bis[[2-[2-[2-[[2-[2-[2-[[2-[2-[2-[[2-[2-[2-[[(4S)-4-carboxy-4-[[4-[(19-carboxynonadecanoylamino)methyl]cyclohexanecarbonyl]amino]butanoyl]amino]ethoxy]ethoxy]acetyl]amino]ethoxy]ethoxy]acetyl]amino]ethoxy]ethoxy]acetyl]amino]ethoxy]ethoxy]acetyl]amino]hexanoyl]Lys, Side chain read from the name: eps-Lys(Bis) branched linker, each leg C20 diacid-Trx-gGlu-4xOEG)",16 pM,0.91 nM,54 nM
"H[Aib]EGTFTSDVSSYLEEQAAREFIAWLVRGRGK([code LysOEG-AEEA-γGlu-Trx-C20 diacid)(OEG-AEEA-γGlu-Trx-C20 diacid]) (reading uncertain; also: printed as N{Alpha}([Aib8,Glu22,Arg26,Arg34]-GLP-1-(7-37)-peptidyl)-N{Epsilon}[(2S)-2,6-bis[[2-[2-[2-[[2-[2-[2-[[(4S)-4-carboxy-4-[[4-[(19-carboxynonadecanoylamino)methyl]cyclohexanecarbonyl]amino]butanoyl]amino]ethoxy]ethoxy]acetyl]amino]ethoxy]ethoxy]acetyl]amino]hexanoyl]Lys, Side chain read from the name: eps-Lys(Bis) branched linker, each leg C20 diacid-Trx-gGlu-2xOEG)",70 pM,0.9 nM,78 nM
"H[Aib]EGTFTSDVSSYLEEQAAREFIAWLVRGRPK([code LysOEG-AEEA-AEEA-AEEA-AEEA-AEEA-γGlu-Trx-C20 diacid)(OEG-AEEA-AEEA-AEEA-AEEA-AEEA-γGlu-Trx-C20 diacid]) (reading uncertain, Side chain read from the name: eps-Lys(Bis) branched linker, each leg C20 diacid-Trx-gGlu-6xOEG)",12 pM,0.57 nM,84 nM
